Laboratory results as given in patent publication US20200024330A1.

Columns and labels:
Test in all cases: cell-based or functional assay
[1] = biological target: HIV-1 JR-CSF Env K421A (HIV-1 (isolate JR-CSF)) (UniProt P20871)
[2] = biological target: HIV-1 JR-CSF Env K305A (HIV-1 JR-CSF) (UniProt P20871)
[3] = biological target: HIV-1 JR-CSF Env N392Q (HIV-1 (isolate JR-CSF)) (UniProt P20871)
[4] = biological target: HIV-1 JR-CSF Env Q337A (HIV-1 isolate JR-CSF) (UniProt P20871)
[5] = biological target: HIV-1 JR-CSF Env N396A (HIV-1 (isolate JR-CSF)) (UniProt P20871)
[6] = biological target: HIV-1 JR-CSF Env I414A (HIV-1 (isolate JR-CSF)) (UniProt P20871)
[7] = biological target: HIV-1 JR-CSF Env T413A (HIV-1 (isolate JR-CSF)) (UniProt P20871)
[8] = biological target: HIV-1 JR-CSF Env S387A (HIV-1 (isolate JR-CSF)) (UniProt P20871)
[9] = biological target: HIV-1 JR-CSF Env P299A (HIV-1 JR-CSF) (UniProt P20871)
[10] = biological target: HIV-1 JR-CSF Env R304A (HIV-1 JR-CSF) (UniProt P20871)
[11] = biological target: Env of all HIV-1 pseudoviruses of the cross-clade 162-pseudovirus panel (n = 162)
[12] = biological target: HIV-1 JR-CSF Env Q422A (HIV-1 (isolate JR-CSF)) (UniProt P20871)
[13] = biological target: HIV-1 JR-CSF Env S306A (HIV-1 JR-CSF) (UniProt P20871)
[14] = biological target: HIV-1 JR-CSF Env I423A (HIV-1 (isolate JR-CSF)) (UniProt P20871)
[15] = biological target: HIV-1 JR-CSF Env I323A (HIV-1 isolate JR-CSF) (UniProt P20871)
[16] = biological target: HIV-1 JR-CSF Env N332A (HIV-1 isolate JR-CSF) (UniProt P20871)
[17] = biological target: Env of the clade B HIV-1 pseudoviruses of the cross-clade 162-pseudovirus panel (n = 31)
[18] = biological target: HIV-1 JR-CSF Env T202A (HIV-1 JR-CSF) (UniProt P20871)
[19] = biological target: HIV-1 JR-CSF Env R327A (HIV-1 isolate JR-CSF) (UniProt P20871)
[20] = biological target: HIV-1 JR-CSF Env N241A (HIV-1 JR-CSF) (UniProt P20871)
[21] = biological target: HIV-1 JR-CSF Env V292A (HIV-1 JR-CSF) (UniProt P20871)
[22] = biological target: HIV-1 JR-CSF Env T319A (HIV-1 isolate JR-CSF) (UniProt P20871)
[23] = biological target: HIV-1 JR-CSF Env I424A (HIV-1 (isolate JR-CSF)) (UniProt P20871)
[24] = biological target: HIV-1 JR-CSF Env D417A (HIV-1 (isolate JR-CSF)) (UniProt P20871)
[25] = biological target: HIV-1 JRFL envelope glycoprotein (Env) (HIV-1)
[26] = biological target: HIV-1 JR-CSF Env I415A (HIV-1 (isolate JR-CSF)) (UniProt P20871)
[27] = biological target: HIV-1 JR-CSF Env W395A (HIV-1 (isolate JR-CSF)) (UniProt P20871)
[28] = biological target: HIV-1 JR-CSF Env L416A (HIV-1 (isolate JR-CSF)) (UniProt P20871)
[29] = biological target: Env of the clade AG HIV-1 pseudoviruses of the cross-clade 162-pseudovirus panel (n = 10)
[30] = biological target: HIV-1 JR-CSF Env G324A (HIV-1 isolate JR-CSF) (UniProt P20871)
[31] = biological target: HIV-1 JR-CSF Env N302A (HIV-1 JR-CSF) (UniProt P20871)
[32] = biological target: HIV-1 JR-CSF Env N355A (HIV-1 isolate JR-CSF) (UniProt P20871)
[33] = biological target: HIV-1 MGRM-C-026 envelope glycoprotein (Env) (HIV-1)
[34] = biological target: HIV-1 JR-CSF Env I326A (HIV-1 isolate JR-CSF) (UniProt P20871)
[35] = biological target: HIV-1 Env of isolate MGRM-A-009 (HIV-1)
[36] = biological target: HIV-1 Env of isolate 93UG077 (HIV-1)
[37] = biological target: HIV-1 Env of isolate MGRM-A-008 (HIV-1)
[38] = biological target: HIV-1 Env of isolate MGRM-A-004 (HIV-1)
[39] = biological target: HIV-1 Env of isolate MGRM-A-001 (HIV-1)
[40] = biological target: HIV-1 Env of isolate 92WR020 (HIV-1)
[41] = biological target: HIV-1 Env of isolate MGRM-A-010 (HIV-1)

B1: PGT-135 (antibody, V domains shown)
VH: QLQMQESGPGLVKPSETLSLSCTVSGDSIRGGEWGDKDYHWGWVRHSAGKGLEWIGSIHWRGTTHYKESLRRRVSMSIDTSRNWFSLRLASVTAADTAVYFCARHRHHDVFMLVPIAGWFDVWGPGVQVTVSS
VL: EIVMTQSPDTLSVSPGETVTLSCRASQNINKNLAWYQYKPGQSPRLVIFETYSKIAAFPARFVASGSGTEFTLTINNMQSEDVAVYYCQQYEEWPRTFGQGTKVDIK
- Fold IC50 increase relative to wild-type [1]: 0.3 fold
- Fold IC50 increase relative to wild-type [2]: 0.2 fold
- Fold IC50 increase relative to wild-type [3]: > 250 fold
- Fold IC50 increase relative to wild-type [4]: 2.1 fold
- Fold IC50 increase relative to wild-type [5]: 1 fold
- Fold IC50 increase relative to wild-type [6]: 1.2 fold
- Fold IC50 increase relative to wild-type [7]: 0.3 fold
- Fold IC50 increase relative to wild-type [8]: 0.6 fold
- Fold IC50 increase relative to wild-type [9]: 0.36 fold
- Fold IC50 increase relative to wild-type [10]: 0.7 fold
- Median IC50 against viruses neutralized with an IC50 <50 µg/ml [11]: 0.17 µg/mL
- Fold IC50 increase relative to wild-type [12]: 0.8 fold
- Fold IC50 increase relative to wild-type [13]: 0.4 fold
- Fold IC50 increase relative to wild-type [14]: 0.1 fold
- Fold IC50 increase relative to wild-type [15]: 1.5 fold
- Fold IC50 increase relative to wild-type [16]: > 250 fold
- Median IC50 against viruses neutralized with an IC50 <50 µg/ml [17]: 0.15 µg/mL
- Fold IC50 increase relative to wild-type [18]: 1.8 fold
- Fold IC50 increase relative to wild-type [19]: 0.67 fold
- Fold IC50 increase relative to wild-type [20]: 0.1 fold
- Fold IC50 increase relative to wild-type [21]: 2 fold
- Fold IC50 increase relative to wild-type [22]: 0.4 fold
- Fold IC50 increase relative to wild-type [23]: 0.1 fold
- Fold IC50 increase relative to wild-type [24]: 5 fold
- IC50 neutralization [25]: > 10 µg/mL
- Fold IC50 increase relative to wild-type [26]: 5 fold
- Fold IC50 increase relative to wild-type [27]: 0.6 fold
- Fold IC50 increase relative to wild-type [28]: 1.2 fold
- Median IC50 against viruses neutralized with an IC50 <50 µg/ml [29]: 27.4 µg/mL
- Fold IC50 increase relative to wild-type [30]: 0.4 fold
- Fold IC50 increase relative to wild-type [31]: 0.8 fold
- Fold IC50 increase relative to wild-type [32]: 0.8 fold
- IC50 neutralization [33]: 0.0123 µg/mL
- Fold IC50 increase relative to wild-type [34]: 1.2 fold

B2: PGT-127 (antibody, V domains shown)
VH: QPQLQESGPGLVEASETLSLTCTVSGDSTGRCNYFWGWVRQPPGKGLEWIGSLSHCRSYYNTDWTYHNPSLKSRLTISLDTPKNQVFLRLTSVTAADTATYYCARFGGEVLVYRDWPKPAWVDLWGRGTLVVTVS
VL: QSALTQPPSASGSPGQSITISCTGTSNNFVSWYQQYPGKAPKLVIYEVNKRPSGVPDRFSGSKSGSTASLTVSGLQADDEGVYYCSSLVGNWDVIFGGGTKLTVL
- Fold IC50 increase relative to wild-type [1]: 1.5 fold
- Fold IC50 increase relative to wild-type [2]: 2.6 fold
- IC50 (µg/mL), pseudovirus neutralization [35]: 0.013 µg/mL
- Fold IC50 increase relative to wild-type [3]: 1.1 fold
- IC50 (µg/mL), pseudovirus neutralization [36]: 0.055 µg/mL
- Fold IC50 increase relative to wild-type [4]: 0.5 fold
- Fold IC50 increase relative to wild-type [5]: 2.4 fold
- IC50 (µg/mL), pseudovirus neutralization [37]: > 50 µg/mL
- Fold IC50 increase relative to wild-type [6]: 2.2 fold
- Fold IC50 increase relative to wild-type [7]: 0.8 fold
- Fold IC50 increase relative to wild-type [8]: 1 fold
- Fold IC50 increase relative to wild-type [9]: 0.2 fold
- Fold IC50 increase relative to wild-type [10]: 0.4 fold
- IC50 (µg/mL), pseudovirus neutralization [38]: > 50 µg/mL
- Median IC50 against viruses neutralized with an IC50 <50 µg/ml [11]: 0.08 µg/mL
- Fold IC50 increase relative to wild-type [12]: 0.1 fold
- Fold IC50 increase relative to wild-type [13]: 0.6 fold
- IC50 (µg/mL), pseudovirus neutralization [39]: > 50 µg/mL
- Fold IC50 increase relative to wild-type [14]: 0.5 fold
- Fold IC50 increase relative to wild-type [15]: 4 fold
- Fold IC50 increase relative to wild-type [16]: > 100 fold
- Median IC50 against viruses neutralized with an IC50 <50 µg/ml [17]: 0.06 µg/mL
- Fold IC50 increase relative to wild-type [18]: 1.8 fold
- Fold IC50 increase relative to wild-type [19]: 1.8 fold
- Fold IC50 increase relative to wild-type [20]: 0.6 fold
- Fold IC50 increase relative to wild-type [21]: 0.9 fold
- Fold IC50 increase relative to wild-type [22]: 1 fold
- Fold IC50 increase relative to wild-type [23]: 2 fold
- Fold IC50 increase relative to wild-type [24]: 0.4 fold
- IC50 (µg/mL), pseudovirus neutralization [40]: 0.01 µg/mL
- Fold IC50 increase relative to wild-type [26]: 2.1 fold
- Fold IC50 increase relative to wild-type [27]: 1.6 fold
- IC50 (µg/mL), pseudovirus neutralization [41]: 0.017 µg/mL
- Fold IC50 increase relative to wild-type [28]: 1 fold
- Median IC50 against viruses neutralized with an IC50 <50 µg/ml [29]: 0.04 µg/mL
- Fold IC50 increase relative to wild-type [31]: 3 fold
- Fold IC50 increase relative to wild-type [32]: 1.4 fold
- Fold IC50 increase relative to wild-type [34]: 3.5 fold

B3: PGT-123 (antibody, V domains shown)
VH: QLHLQESGPGLVKPPETLSLTCSVSGASINDAYWSWIRQSPGKRPEWVGYVHHSGDTNYNPSLKRRVTFSLDTAKNEVSLKLVDLTAADSATYFCARALHGKRIYGIVALGELFTYFYMDVWGKGTAVTVSS
VL: SSMSVSPGETAKISCGKESIGSRAVQWYQQKPGQPPSLIIYNNQDRPAGVPERFSASPDFRPGTTATLTITNVDAEDEADYYCHIYDARGGTNWVFDRGTTLTVL
- Fold IC50 increase relative to wild-type [1]: 0.9 fold
- Fold IC50 increase relative to wild-type [2]: 1.9 fold
- IC50 (µg/mL), pseudovirus neutralization [35]: 0.004 µg/mL
- Fold IC50 increase relative to wild-type [3]: 1 fold
- IC50 (µg/mL), pseudovirus neutralization [36]: 0.028 µg/mL
- Fold IC50 increase relative to wild-type [4]: 0.5 fold
- Fold IC50 increase relative to wild-type [5]: 1.2 fold
- IC50 (µg/mL), pseudovirus neutralization [37]: > 50 µg/mL
- Fold IC50 increase relative to wild-type [6]: 0.3 fold
- Fold IC50 increase relative to wild-type [7]: 0.4 fold
- Fold IC50 increase relative to wild-type [8]: 0.9 fold
- Fold IC50 increase relative to wild-type [9]: 0.7 fold
- Fold IC50 increase relative to wild-type [10]: 0.7 fold
- IC50 (µg/mL), pseudovirus neutralization [38]: > 50 µg/mL
- Median IC50 against viruses neutralized with an IC50 <50 µg/ml [11]: 0.03 µg/mL
- Fold IC50 increase relative to wild-type [12]: 0.8 fold
- Fold IC50 increase relative to wild-type [13]: 0.5 fold
- IC50 (µg/mL), pseudovirus neutralization [39]: > 50 µg/mL
- Fold IC50 increase relative to wild-type [14]: 1.5 fold
- Fold IC50 increase relative to wild-type [15]: 1 fold
- Fold IC50 increase relative to wild-type [16]: > 200 fold
- Median IC50 against viruses neutralized with an IC50 <50 µg/ml [17]: 0.02 µg/mL
- Fold IC50 increase relative to wild-type [18]: 1.2 fold
- Fold IC50 increase relative to wild-type [19]: 1.7 fold
- Fold IC50 increase relative to wild-type [20]: 0.8 fold
- Fold IC50 increase relative to wild-type [21]: 1.7 fold
- Fold IC50 increase relative to wild-type [22]: 0.4 fold
- Fold IC50 increase relative to wild-type [23]: 0.5 fold
- Fold IC50 increase relative to wild-type [24]: 0.7 fold
- IC50 neutralization [25]: 0.0283 µg/mL
- IC50 (µg/mL), pseudovirus neutralization [40]: 0.002 µg/mL
- Fold IC50 increase relative to wild-type [26]: 0.4 fold
- Fold IC50 increase relative to wild-type [27]: 0.4 fold
- IC50 (µg/mL), pseudovirus neutralization [41]: 0.705 µg/mL
- Fold IC50 increase relative to wild-type [28]: 0.9 fold
- Median IC50 against viruses neutralized with an IC50 <50 µg/ml [29]: 0.61 µg/mL
- Fold IC50 increase relative to wild-type [30]: 14.5 fold
- Fold IC50 increase relative to wild-type [31]: 1.3 fold
- Fold IC50 increase relative to wild-type [32]: 0.5 fold
- IC50 neutralization [33]: 0.0031 µg/mL
- Fold IC50 increase relative to wild-type [34]: 0.4 fold
